Assay results taken from the supplement of paper PMC10065799, “High-throughput profiling of sequence recognition by tyrosine kinases and SH2 domains using bacterial peptide display” (eLife, 2023).

Columns and labels:
c-Abl (mouse) = experiment: phosphorylation enrichment, bacterial display (enrichment ratio); higher = better substrate or ligand; peptides without Tyr show the background
FGFR3 = FGFR3 (UniProt P22607); experiment: as above
Fyn = Fyn (UniProt P06241); experiment: as above
Fes = Fes (UniProt P07332); experiment: as above
Fer (mouse) = experiment: as above
FGFR1 = FGFR1 (UniProt P11362); experiment: as above
EPHB2 = EPHB2 (UniProt P29323); experiment: as above
Hck = Hck (UniProt P08631); experiment: as above
AncSZ = experiment: as above
c-Src = experiment: as above
EPHB1 = EPHB1 (UniProt P54762); experiment: as above
MERTK = MERTK (UniProt Q12866); experiment: as above
Jak2 = Jak2 (UniProt O60674); experiment: as above
c-Src SH2 = experiment: SH2 binding enrichment of the phosphorylated peptide, bacterial display (enrichment ratio); higher = better substrate or ligand; peptides without Tyr show the background
Grb2 SH2 = Grb2 SH2 (UniProt P62993); experiment: as above
SHP2-C SH2 = experiment: as above
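Wherever SH2 binding enrichment of the phosphorylated peptide, bacterial display is given: peptide library displayed on the E. coli surface as eCPX fusions, selected cells deep-sequenced, score is each peptide's frequency after selection divided by its frequency in the input.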
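Wherever phosphorylation enrichment, bacterial display is given: 11-residue human phosphosite peptides and single-mutation variants displayed on the E. coli surface, counted by deep sequencing, each peptide's frequency after selection divided by its frequency in the unselected input library; frequency after pTyr selection over input frequency; kinase dosed for 20-30% of maximal phosphorylation in three min.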

Sequence of FGFR3 (P22607 whole entry, looked up): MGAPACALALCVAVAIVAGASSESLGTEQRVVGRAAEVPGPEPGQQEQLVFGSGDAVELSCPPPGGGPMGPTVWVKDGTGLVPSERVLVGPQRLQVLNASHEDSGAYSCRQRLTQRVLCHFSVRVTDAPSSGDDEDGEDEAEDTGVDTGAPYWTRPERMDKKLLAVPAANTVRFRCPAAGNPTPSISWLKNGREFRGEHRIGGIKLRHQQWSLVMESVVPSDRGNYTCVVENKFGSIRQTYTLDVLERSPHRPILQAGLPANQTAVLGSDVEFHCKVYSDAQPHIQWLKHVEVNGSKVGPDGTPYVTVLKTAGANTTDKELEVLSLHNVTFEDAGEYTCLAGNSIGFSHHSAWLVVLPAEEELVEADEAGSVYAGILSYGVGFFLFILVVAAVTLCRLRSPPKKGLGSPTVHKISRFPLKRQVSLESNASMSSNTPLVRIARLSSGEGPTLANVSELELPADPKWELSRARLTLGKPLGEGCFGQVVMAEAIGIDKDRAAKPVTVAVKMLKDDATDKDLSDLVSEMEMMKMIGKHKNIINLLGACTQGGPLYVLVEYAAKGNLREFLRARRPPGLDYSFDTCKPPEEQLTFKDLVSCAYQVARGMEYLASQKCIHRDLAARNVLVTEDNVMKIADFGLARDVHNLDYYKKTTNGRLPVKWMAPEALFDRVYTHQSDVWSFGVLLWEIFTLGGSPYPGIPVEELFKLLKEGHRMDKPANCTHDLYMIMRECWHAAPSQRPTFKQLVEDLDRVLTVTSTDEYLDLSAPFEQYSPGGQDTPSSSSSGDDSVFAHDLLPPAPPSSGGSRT
Sequence of EPHB2 (P29323 whole entry, looked up): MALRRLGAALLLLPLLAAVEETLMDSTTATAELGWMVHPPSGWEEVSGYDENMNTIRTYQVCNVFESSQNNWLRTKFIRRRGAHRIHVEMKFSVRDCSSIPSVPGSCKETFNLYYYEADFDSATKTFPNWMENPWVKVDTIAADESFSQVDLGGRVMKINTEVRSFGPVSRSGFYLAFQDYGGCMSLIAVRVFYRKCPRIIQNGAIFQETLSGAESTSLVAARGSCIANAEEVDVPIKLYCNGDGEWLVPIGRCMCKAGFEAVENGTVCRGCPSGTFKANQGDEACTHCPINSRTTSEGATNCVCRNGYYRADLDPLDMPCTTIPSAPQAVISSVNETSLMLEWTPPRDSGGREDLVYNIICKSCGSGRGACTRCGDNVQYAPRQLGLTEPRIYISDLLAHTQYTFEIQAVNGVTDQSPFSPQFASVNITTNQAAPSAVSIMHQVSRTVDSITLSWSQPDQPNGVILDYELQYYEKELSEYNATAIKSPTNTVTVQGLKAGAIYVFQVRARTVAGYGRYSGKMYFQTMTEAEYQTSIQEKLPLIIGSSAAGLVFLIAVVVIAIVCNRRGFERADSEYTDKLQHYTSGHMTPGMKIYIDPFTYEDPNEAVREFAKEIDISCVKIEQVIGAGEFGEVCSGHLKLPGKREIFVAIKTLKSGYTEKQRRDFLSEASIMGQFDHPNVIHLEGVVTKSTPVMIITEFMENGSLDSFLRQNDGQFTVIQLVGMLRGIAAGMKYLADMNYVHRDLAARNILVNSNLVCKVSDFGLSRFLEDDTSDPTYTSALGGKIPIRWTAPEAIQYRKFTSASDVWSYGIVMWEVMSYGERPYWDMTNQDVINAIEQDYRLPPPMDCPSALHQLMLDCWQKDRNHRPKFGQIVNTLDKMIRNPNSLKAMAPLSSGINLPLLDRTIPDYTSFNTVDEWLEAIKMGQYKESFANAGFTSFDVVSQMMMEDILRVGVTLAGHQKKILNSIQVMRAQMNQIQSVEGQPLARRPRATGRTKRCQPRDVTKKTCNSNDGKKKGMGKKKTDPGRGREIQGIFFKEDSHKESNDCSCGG
Sequence of Jak2 (O60674 whole entry, looked up): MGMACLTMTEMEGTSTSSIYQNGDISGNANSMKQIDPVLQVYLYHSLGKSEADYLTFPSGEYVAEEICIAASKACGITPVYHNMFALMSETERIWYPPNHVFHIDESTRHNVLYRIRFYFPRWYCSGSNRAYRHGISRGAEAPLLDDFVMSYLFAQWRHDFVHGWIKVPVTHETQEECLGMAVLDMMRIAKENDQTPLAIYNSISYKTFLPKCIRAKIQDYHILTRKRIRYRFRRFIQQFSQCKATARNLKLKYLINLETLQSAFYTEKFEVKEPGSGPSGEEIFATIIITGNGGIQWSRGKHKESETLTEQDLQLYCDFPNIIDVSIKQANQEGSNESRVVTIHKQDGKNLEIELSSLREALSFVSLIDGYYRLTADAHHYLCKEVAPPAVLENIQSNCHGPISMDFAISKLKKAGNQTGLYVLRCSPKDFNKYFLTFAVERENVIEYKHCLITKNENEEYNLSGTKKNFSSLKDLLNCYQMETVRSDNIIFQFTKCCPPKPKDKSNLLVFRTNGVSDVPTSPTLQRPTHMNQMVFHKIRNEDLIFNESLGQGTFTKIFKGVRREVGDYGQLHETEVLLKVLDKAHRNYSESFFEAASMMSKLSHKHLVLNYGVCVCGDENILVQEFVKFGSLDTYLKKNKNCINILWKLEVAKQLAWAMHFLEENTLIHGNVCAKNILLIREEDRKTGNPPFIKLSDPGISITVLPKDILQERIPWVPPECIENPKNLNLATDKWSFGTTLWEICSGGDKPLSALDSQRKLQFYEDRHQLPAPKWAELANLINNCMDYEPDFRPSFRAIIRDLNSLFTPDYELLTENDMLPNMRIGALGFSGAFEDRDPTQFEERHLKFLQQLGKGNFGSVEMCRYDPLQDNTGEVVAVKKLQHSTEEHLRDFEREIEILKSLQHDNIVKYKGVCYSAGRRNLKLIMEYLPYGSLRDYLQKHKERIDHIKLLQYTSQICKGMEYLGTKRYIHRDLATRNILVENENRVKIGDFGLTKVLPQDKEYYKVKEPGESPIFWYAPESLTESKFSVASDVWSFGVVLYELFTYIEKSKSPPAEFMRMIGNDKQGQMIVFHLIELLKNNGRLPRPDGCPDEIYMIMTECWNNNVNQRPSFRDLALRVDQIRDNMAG
Sequence of MERTK (Q12866 whole entry, looked up): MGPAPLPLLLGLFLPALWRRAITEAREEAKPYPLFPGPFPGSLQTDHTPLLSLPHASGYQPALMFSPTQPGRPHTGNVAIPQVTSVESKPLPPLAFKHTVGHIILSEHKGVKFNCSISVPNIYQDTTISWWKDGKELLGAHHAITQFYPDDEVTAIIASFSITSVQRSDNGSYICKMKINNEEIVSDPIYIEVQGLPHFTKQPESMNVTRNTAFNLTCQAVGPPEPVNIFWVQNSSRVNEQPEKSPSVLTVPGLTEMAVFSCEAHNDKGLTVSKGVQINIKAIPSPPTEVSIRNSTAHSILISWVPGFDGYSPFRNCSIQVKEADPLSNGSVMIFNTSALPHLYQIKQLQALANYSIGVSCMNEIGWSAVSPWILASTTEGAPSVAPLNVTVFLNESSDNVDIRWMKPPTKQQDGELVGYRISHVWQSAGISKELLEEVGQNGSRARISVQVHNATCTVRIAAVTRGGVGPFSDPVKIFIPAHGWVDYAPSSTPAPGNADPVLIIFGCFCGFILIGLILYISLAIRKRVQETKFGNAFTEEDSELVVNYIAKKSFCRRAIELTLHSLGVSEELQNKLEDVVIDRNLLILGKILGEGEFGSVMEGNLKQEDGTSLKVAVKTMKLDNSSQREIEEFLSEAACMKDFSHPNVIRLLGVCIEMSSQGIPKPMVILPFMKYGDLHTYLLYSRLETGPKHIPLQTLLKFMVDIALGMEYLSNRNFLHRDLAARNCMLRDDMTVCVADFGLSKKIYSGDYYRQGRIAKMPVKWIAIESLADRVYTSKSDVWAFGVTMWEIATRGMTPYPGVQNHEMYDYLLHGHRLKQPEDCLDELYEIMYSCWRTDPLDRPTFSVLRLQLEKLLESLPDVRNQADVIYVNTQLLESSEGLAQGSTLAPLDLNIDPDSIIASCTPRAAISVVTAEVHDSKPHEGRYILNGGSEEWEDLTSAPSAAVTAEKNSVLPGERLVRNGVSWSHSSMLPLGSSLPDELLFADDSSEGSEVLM
Sequence of Fes (P07332 whole entry, looked up): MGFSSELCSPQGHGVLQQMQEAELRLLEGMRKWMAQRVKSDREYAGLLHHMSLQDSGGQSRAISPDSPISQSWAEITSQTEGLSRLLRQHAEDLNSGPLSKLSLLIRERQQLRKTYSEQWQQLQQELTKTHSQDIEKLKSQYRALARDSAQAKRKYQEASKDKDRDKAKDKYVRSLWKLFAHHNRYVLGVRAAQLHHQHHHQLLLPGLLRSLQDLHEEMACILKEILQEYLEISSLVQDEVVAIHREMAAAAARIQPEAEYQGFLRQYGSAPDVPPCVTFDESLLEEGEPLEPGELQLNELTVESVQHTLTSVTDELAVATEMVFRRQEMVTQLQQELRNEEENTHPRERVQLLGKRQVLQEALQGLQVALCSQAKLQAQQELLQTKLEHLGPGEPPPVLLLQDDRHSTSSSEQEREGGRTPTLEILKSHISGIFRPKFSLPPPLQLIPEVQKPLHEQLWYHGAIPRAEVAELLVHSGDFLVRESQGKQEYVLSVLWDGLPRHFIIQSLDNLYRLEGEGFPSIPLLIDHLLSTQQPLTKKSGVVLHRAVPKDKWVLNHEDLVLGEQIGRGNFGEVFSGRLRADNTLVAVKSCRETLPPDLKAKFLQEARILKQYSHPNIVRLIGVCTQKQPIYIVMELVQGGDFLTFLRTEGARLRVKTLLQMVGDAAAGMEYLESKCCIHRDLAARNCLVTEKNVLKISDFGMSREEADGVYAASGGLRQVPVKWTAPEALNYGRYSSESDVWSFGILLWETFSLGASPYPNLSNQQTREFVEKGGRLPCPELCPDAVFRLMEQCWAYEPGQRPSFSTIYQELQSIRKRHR

SH2 binding enrichment (c-Src SH2) | SH2 binding enrichment (Grb2 SH2) | SH2 binding enrichment (SHP2-C SH2) | Sequence | phosphorylation enrichment (c-Abl (mouse)) | phosphorylation enrichment (FGFR3) | phosphorylation enrichment (Fyn) | phosphorylation enrichment (Fes) | phosphorylation enrichment (Fer (mouse)) | phosphorylation enrichment (FGFR1) | phosphorylation enrichment (EPHB2) | phosphorylation enrichment (Hck) | phosphorylation enrichment (AncSZ) | phosphorylation enrichment (c-Src) | phosphorylation enrichment (EPHB1) | phosphorylation enrichment (MERTK) | phosphorylation enrichment (Jak2)
1.12 | 0.889 | 0.57 | SVVVPYERPEV [TP53_Y220_P222R] | 0.731 | 0.627 | 0.475 | 0.988 | 0.51 | 0.495 | 0.513 | 0.502 | 0.958 | 0.432 | 0.439 | 0.401 | 0.846
0.528 | 0.964 | 0.592 | DVFVSYDCGKS [SORL1_Y139_Y141C_YF] | 0.74 | 0.61 | 0.495 | 1.04 | 0.521 | 0.485 | 0.518 | 0.592 | 0.969 | 0.449 | 0.611 | 0.371 | 1.05
0.691 | 0.982 | 0.655 | RLAQRYLIWEC [SCN5A_Y694] | 0.86 | 0.841 | 0.595 | 1.66 | 0.546 | 0.647 | 0.914 | 0.679 | 1.09 | 0.492 | 0.943 | 0.609 | 1.34
1.25 | 1.65 | 1.16 | KMKGEYYRYLA [YWHAG_Y130_D129E] | 1.34 | 3.14 | 0.607 | 0.961 | 0.409 | 4.78 | 0.717 | 1.09 | 0.981 | 1.07 | 0.639 | 0.957 | 1.68
0.755 | 1.57 | 1.02 | QFFQSYFNNNF [ZNF236_Y644] | 0.455 | 0.841 | 0.682 | 1.14 | 0.37 | 0.643 | 0.29 | 0.532 | 0.766 | 0.549 | 0.981 | 0.627 | 1.6
0.849 | 0.703 | 0.607 | IDSTPYGQWYE [RPS8_Y109_R110G] | 0.719 | 0.701 | 2.59 | 1.18 | 1.13 | 0.741 | 0.612 | 1.37 | 1.12 | 3.33 | 0.596 | 0.526 | 0.984
1.28 | 0.895 | 14.7 | GLTSTYAGIRK [ROBO1_Y932] | 0.724 | 0.372 | 1.46 | 0.66 | 0.521 | 0.342 | 0.492 | 6.69 | 0.525 | 1.52 | 0.303 | 0.497 | 0.548

The remaining lines, values behind:

Sequence | SH2 binding enrichment (c-Src SH2) | SH2 binding enrichment (Grb2 SH2) | SH2 binding enrichment (SHP2-C SH2) | phosphorylation enrichment (c-Abl (mouse)) | phosphorylation enrichment (FGFR3) | phosphorylation enrichment (Fyn) | phosphorylation enrichment (Fes) | phosphorylation enrichment (Fer (mouse)) | phosphorylation enrichment (FGFR1) | phosphorylation enrichment (EPHB2) | phosphorylation enrichment (Hck) | phosphorylation enrichment (AncSZ) | phosphorylation enrichment (c-Src) | phosphorylation enrichment (EPHB1) | phosphorylation enrichment (MERTK) | phosphorylation enrichment (Jak2)
LSGVIYVILWK [PMP22_Y153_R157W] | 0.595 | 1.45 | 0.99 | 0.996 | 0.652 | 0.304 | 1.95 | 0.583 | 0.358 | 0.538 | 0.538 | 1.44 | 0.752 | 0.809 | 0.666 | 1.55
ALERPYTSKHS [NANS_Y71] | 0.6 | 0.866 | 0.529 | 0.615 | 0.398 | 0.406 | 0.535 | 0.353 | 0.381 | 0.459 | 0.463 | 0.531 | 0.461 | 0.372 | 0.442 | 0.564
AGADGYGYLAP [FOXL2_Y186] | 1.09 | 0.759 | 0.339 | 0.443 | 0.457 | 0.361 | 0.622 | 0.26 | 0.37 | 0.464 | 0.468 | 0.576 | 0.372 | 0.387 | 0.364 | 0.538
CENCHYPILPL [LCK_Y25_V28L] | 0.912 | 1.13 | 1.29 | 0.607 | 0.632 | 0.391 | 0.903 | 0.423 | 0.541 | 0.422 | 0.746 | 0.678 | 0.436 | 0.43 | 0.357 | 0.718
TLRETYGEMAD [ALB_Y108] | 0.91 | 1.11 | 0.579 | 0.885 | 0.836 | 0.627 | 1.2 | 0.446 | 0.519 | 0.559 | 0.555 | 0.999 | 0.702 | 0.54 | 0.454 | 0.982
SLIDGYYRLTE [JAK2_Y372_A377E] | 2.49 | 0.843 | 1.21 | 0.533 | 0.997 | 0.427 | 1.1 | 0.425 | 1.11 | 0.531 | 0.583 | 1.17 | 0.639 | 0.521 | 0.441 | 5.79
PFTRNYFVRAV [CYBA_Y87_YF] | 0.519 | 0.868 | 0.327 | 0.868 | 0.739 | 0.533 | 0.967 | 0.408 | 0.788 | 0.708 | 0.595 | 1.04 | 0.419 | 0.413 | 0.544 | 0.93
LTERGYSFTTK [ACTG1_Y198_T203K] | 0.454 | 0.679 | 0.653 | 0.995 | 1.54 | 1.66 | 2.1 | 2.1 | 1.96 | 2.03 | 0.911 | 3 | 0.982 | 1.8 | 1.79 | 1.65
IVAREYYSKAD [CAMK2B_Y107_E110K] | 2.01 | 0.75 | 0.749 | 0.639 | 0.504 | 0.423 | 0.85 | 0.405 | 0.43 | 0.602 | 0.507 | 0.768 | 0.525 | 0.467 | 0.425 | 0.697
